We go through 41 sequences from the nanobody polyreactivity screen of Harvey et al. (2022).

This series in a line: yeast display, Sf9 membrane polyspecificity reagent, FACS + sequencing; frameworks hold sequencing errors. In outline:
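Galactose induction of a Saccharomyces cerevisiae BJ5465 synthetic nanobody display library ran 36–48 hours. The cells were then stained for 1 hour at 4 °C with 10% biotinylated, detergent-solubilized Sf9 membrane reagent, pulled down on streptavidin microbeads and FACS-sorted into low and high (top ~1%) gates on expression and reagent-binding fluorescence. Labels for polyreactivity follow the gate of origin.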
With “QVQLVESGGGLVQAGGSHRLSCAASGSTFSYNTMGWYRQAPGKERELVAAIRSGGSTYYADSVKGRFTISRDNAKNTVYLQMNSLKPEDTAVYYCATDKFHRKVLHWYDYWGQGTQVTVSS”, the “polyreactivity (PSR sort gate)” value is reported as “low polyreactivity”.

As to “QVQLVESGGGLVQAGGSHRLSCAASGSTFTGYAMACYRQAPGKEREFVAGNTGSGGSTYYADSVKGRFTISRDIAKNSVYFQMISLKPEDTAVYYCAASFWYHYVWLDYYWGQGTQVTVSS”, the “polyreactivity (PSR sort gate)” value is given as “low polyreactivity”. For “QVQLVESGGGLVQAGGSHRLSCAATGNTFHTNAIGWYRQAPGKERELVAAITGGGSTYYADSVKGRFTISRDNAKNTVYLQMNSLKPEDTAVYYCNTDVPYGLDVSDTIDYYYWGQGTQVTVSS”, the “polyreactivity (PSR sort gate)” value is reported as “low polyreactivity”. With “QVQLVESGGGLVQAGGSHRLSCAAYGSIFATNAMGWYRQAPGKERELVASISYSVSRTYYADSVKGRFTISRDNSMNTVYLQMNSMKPEDTAFYYSAVRQVNWFGIGYEDDYWGQGTQVTVSS”, the “polyreactivity (PSR sort gate)” value is listed as “low polyreactivity”. “QVQLVESGGGLVQAGGSHRLSCADSGSIFWYNAMGWYRQAPGKEREFVATITWSGDSTYYADSVKGRFTISRDNAKNTVYLQMNSLKPEDTAVYYCAALLDYSVADLYSHHVSRYYYWGQGTQVTVSS”: the “polyreactivity (PSR sort gate)” value was “low polyreactivity”. Regarding “QVQLVESGGGLVQAGGSHRLSCDASGRTFWVNAMGWYRQAPGKERELVATIRGSGVSTYYADSVNGRFTISRDNAKNTVYLKMNSLKPVDTAVYYCATTYHRVGLQYTFDYLGQGTQVTVSS”, the “polyreactivity (PSR sort gate)” value is on record as “low polyreactivity”. The same measure for “QVQLVESGGGLVQAGGSHRLSCDASGRTFYRNAMGWYRQAPGKERELVAGISSRGGSTYYADSVKGRFTISRDNAKNTVYLQMISLKPEDTAVYYCAATSSPYSIYNSWGQGTQVTVSS”: “high polyreactivity”; for “QVQLVESGGGLVQAGGSHRLSCSASGITFYYYAMGWYRQAPGKERELVAAISRSGGRTYYADSVKGRFTISRDNAKNTVYLQMNSLKPEDTAVYYCAAVRYQGGDSSIEYDYWGQGTQVTVSW”: “high polyreactivity”. Take “QVQLVESGGGLVQAGGSHRLTCAASGSTFRRYARGWYRQAPGKERELVATISSGRRTNYADSVKGRFTISRDNAKNTVYLQMNSLKPEDTAVYYCAAAYWSSRADTVIKRYYWGQGTQVTVSS”: the “polyreactivity (PSR sort gate)” value is recorded as “high polyreactivity”. The same measure for “QVQLVESGGGLVQAGGSIRISCAASGITFIDYTMGWYRQAPGKERELVAVITKTGYRTYYADSVKGRFTISRDNANNSDYLQMNSLNRSDSAVYYCNALYYIHYYEGYGYWGQGTQVTVSS”: “high polyreactivity”.

Turning to “QVQLVESGGGLVQAGGSIRLRCAASGGIFSVYAMGWYIQAPGKERELVASISLSGGSTSYADSVKGRFTISRDNAKNTVYLQMNSLKPEDTAVYYCNTDFGQAHTLSWYEDMDYWGQGTQVTVSS”, the “polyreactivity (PSR sort gate)” value was “low polyreactivity”. Regarding “QVQLVESGGGLVQAGGSIRLSCAASGFTFDAYAMGWYRQAPGKESELVAAITTSGGNTNYADSVKGRFTISRDNAKNTVYLQMNSLKPEDTAVYYCASDAAVEYGKISYDYWGQGTQVTVSS”, the “polyreactivity (PSR sort gate)” value is recorded as “low polyreactivity”.

Take “QVQLVESGGGLVQAGGSIRLSCAASGFTFRRNAMGWSRQAPGKERELVAAITSSGASTYYADSVKGRFTISRDNAKNTVYLQMNSLKPEDTAVYYCAARQTYYKYGYWGQGTQVTVSS”: the “polyreactivity (PSR sort gate)” value was “high polyreactivity”. Consider “QVQLVESGGGLVQAGGSIRLSCAASGIIFYYYAMGWYRQAPGKERELVAGISYSGGSTYADSVKGRFTISRDNAKNTVYLQMNSLKPEDTAVYYCAADYDYGGHWYDYWGQGTQVTVSS”, for which the “polyreactivity (PSR sort gate)” value is given as “low polyreactivity”. The entry for “QVQLVESGGGLVQAGGSIRLSCAASGRIFARYAMGWYRQAPGTERELVASITVSGDNTYYADSVKGRFTISRDNAKKTVYLQMNSLKPEDTAVYYCAVRAVVLFGFFEYDYWGQGTQVTVSS” is “low polyreactivity”.

Regarding “QVQLVESGGGLVQAGGSIRLSCAASGRIFGAYAIGWYRQAPGKERELVADIRTTGSTNYADSVKGRFTISRDNAKNTVYLQMNSLKPEDTAVYYCAARWRSRRFGSGFEYWGQGTQVTVSS”, the “polyreactivity (PSR sort gate)” value was “high polyreactivity”. For “QVQLVESGGGLVQAGGSIRLSCAASGRTFARNAMGWYRKAPGKERELVAAISSSGGSTYYADSVKGRFTISRDNAKNTVYLQMNSLKPEDTAVYYCARYSSFTYDYWGQGTQVTVSS”, the “polyreactivity (PSR sort gate)” value is reported as “high polyreactivity”.

In the case of “QVQLVESGGGLVQAGGSIRLSCAASGRTFIYNVMGWYRQAPGKERELVAAISSGGNTNYADSVKGRFTISRDNAKNTVYLQMNSLKPEDPAVYYCNARWPLGVSRGGMGYWGQGTQVTVSS”, the “polyreactivity (PSR sort gate)” value is “high polyreactivity”.

Consider “QVQLVESGGGLVQAGGSIRLSCAASGRTFNYYAMGWYRQAPGKERELVAAIDSDGNTYYADSVKGRFTISRDNAKNTVYLQMNSLKPDDTAVYYCAADTHVNPNYDYWGQGTQVTVSS”, for which the “polyreactivity (PSR sort gate)” value is recorded as “low polyreactivity”. For the sequence “QVQLVESGGGLVQAGGSIRLSCAASGSIFYHNAMGWYRPAPGKERELVAAITWSGSTTYYADSVKGRFTISRDNGKNTVYLQMNSLKPEDTAVYYCNAGNRHGHYDYWGQGTQVTVSS”, the “polyreactivity (PSR sort gate)” value was “low polyreactivity”.

For the sequence “QVQLVESGGGLVQAGGSIRLSCAASGSIYKYNAMGWYRQAPGKERELVAAISSGGSTNYADSVKGRFTISRDNAKNTVYLQMNSLKPEDTAVYYCAKDRRRWYYTRDYWGQGTQVTVSS”, the “polyreactivity (PSR sort gate)” value was “low polyreactivity”.

Take “QVQLVESGGGLVQAGGSIRLSCAASGSIYPFYSMGWYRQATGKEMELVAAISDSGGDTYYADSVKGRFTISRDNAKNTVYLQMNSLKPEDTAVYYCAADWFYNSFNYWGQGTQVTVSS”: the “polyreactivity (PSR sort gate)” value is reported as “low polyreactivity”. The same measure for “QVQLVESGGGLVQAGGSIRLSCAASGSTFPGNAMGWYRQAPGKERELVASISGGGDSTYYADSVKGRFTISRDNAKNTVYLQMNSLKPEDTAVYYCAADTQGSVRPGYDYWGQGTQVTVSS”: “low polyreactivity”. “QVQLVESGGGLVQAGGSIRLSCSASGSTFNIYAMGWYRKAPGKERELVAAISGNGDRTYYADSVKGRFTISRDNAKNTVYLQMTSLKPEDTAVYYCAAKYYGWGQGTQVTVSS”: the “polyreactivity (PSR sort gate)” value is given as “high polyreactivity”. Turning to “QVQLVESGGGLVQAGGSIRLSSAASGLIFLGDPMGWYRQAPGKERELVASIRTGRSTSYADSVKGRFTFSRDNAKYTVYLQMNSLKPEDTAVYYCAADRGRPNLPGDYWGQGSQVTVSS”, the “polyreactivity (PSR sort gate)” value is recorded as “low polyreactivity”.

With “QVQLVESGGGLVQAGGSIRLTCAASGLIFLVYPMGWYRPAPGKERELVASIRTGRSTSYADSVKGRFTISRDNAKYTVYLQMNSLKPEDTAVYYCAADRGRPNLPGDYWGQGTQVTVSS”, the “polyreactivity (PSR sort gate)” value is on record as “low polyreactivity”. Consider “QVQLVESGGGLVQAGGSISLSCAASGRIFPTNDMGWYRQAPGKERELVASIDSVGSTKYADSVKGRFTISRDNAKNTVYLQMNSLKPEDTAVYYRALQVLNYDYWGQGTQVTVSS”, for which the “polyreactivity (PSR sort gate)” value is on record as “low polyreactivity”. Turning to “QVQLVESGGGLVQAGGSLCLSCAASGITFLFYAMGWYRQAPGKERELVAAITYSGGSTYYADSVKGRFTISRDNAKNTVYLQMNSLKPEDTAVYYCAADVWWSYYRYDYWGQGTQVTVSS”, the “polyreactivity (PSR sort gate)” value was “low polyreactivity”. As for “QVQLVESGGGLVQAGGSLCLSCAASGSTLRRYAMGWYRQAPGKERELVAAITYRSGSTYYADSVKGRFTISRDNAKNTVYLQMNSLKPEDTAVYYCAKVGYVSKYWFAGDYWGQGTQVTVSS”, the “polyreactivity (PSR sort gate)” value is “high polyreactivity”.

For the sequence “QVQLVESGGGLVQAGGSLGLSCAASGFIFVRYAMGWYRQATGKERELVGAITSTGSTYYADSVKGRFTISRDKAKNTVYLQMNSLKPEDTAVYYCAAVSRTSITFGYYAEYDYWGQGTQVTVSS”, the “polyreactivity (PSR sort gate)” value was “low polyreactivity”.

Regarding “QVQLVESGGGLVQAGGSLGLSCAASGRMFGYYTLGWYRQAPGKERELVAAITSSGGRTYYADSVKGRFTISRDYAKNTVYLQMNSLKPEDTAVYYCAADVEWTSRGSYYRYYYWGQGTQVTVSS”, the “polyreactivity (PSR sort gate)” value is given as “low polyreactivity”. In the case of “QVQLVESGGGLVQAGGSLGLSCAASGRTFGFYAMGWYRQATGKQRELVAAITSTGGSTYYADSVKGRFTISRDNAKNTVYLQMNSLKPEDNAVYYCAADSGTKRYYYWGQGTPVTVSS”, the “polyreactivity (PSR sort gate)” value was “high polyreactivity”. On to “QVQLVESGGGLVQAGGSLGLSCAASGSTFHLYAMGWYRQAPGKEREFVAAIRGRGGNTYADSVKGRFTISRDNAKNTVSLQMNSLKPEDTAVYYCAAPLLRVLRSPYSYNYWGQGTQVTVSS”, for which the “polyreactivity (PSR sort gate)” value was “low polyreactivity”. On to “QVQLVESGGGLVQAGGSLGLSCAATGSTIPYNAMGWYRQAPGKERELVAAINSAGGTNYADSVKGRFTISRDNAKNTVYLQMNSRKPEDTAVYYCAADGSGYYDWYYYWGQGTQVTVSS”, for which the “polyreactivity (PSR sort gate)” value is listed as “low polyreactivity”. The entry for “QVQLVESGGGLVQAGGSLGLTCAASGFILAQNAMGWYRQAPGKERELVAAISRRGGRTSYADSVKGRFTISRDYAKNTVYLQMNSLKPEDTAVYYCAALPPRASSDAGGWYVAEDYWGQGTQVTVSS” is “high polyreactivity”; for “QVQLVESGGGLVQAGGSLLISCAASGRTLDFNVMGWYRQAPGKERELVAAITWSGGSTYYADSVKGRFTISRDNAKNTVYLQMNSLKPEDTAVYYCAKDRWYWARRYDYWGQGTQVTVSS” it is “high polyreactivity”. In the case of “QVQLVESGGGLVQAGGSLLLICAASGLTFYAKVMGWYRQAPGKERELVASISRSGGRTYYADSVKGSFTISRDNAKNTVYLQMNSLKPEDTAVYYSAAADQVGQEDDYWGQGSQVTVSS”, the “polyreactivity (PSR sort gate)” value was “low polyreactivity”. For “QVQLVESGGGLVQAGGSLLLICAASGSIFYFYTMGWYRQAPGKERELVASITYSGGRTYYADSVKWSFTMSRDNAKHTVYLQMNSLKPEDPPVDYCAVRGYRRYWGQGTQVTVSS”, the “polyreactivity (PSR sort gate)” value was “high polyreactivity”. “QVQLVESGGGLVQAGGSLLLSCAASGFNFTYYTMGWYRQAPGKERELVAAISYSGGSTYYAESVKGRFTISRDNAKNSVYLQMNSLKPEDTAVYYCAVRVSDKYISKRFEYWGQGTEVTVSS”: the “polyreactivity (PSR sort gate)” value is reported as “high polyreactivity”. Take “QVQLVESGGGLVQAGGSLLLSCAASGITFGDNAMGWYRQAPGKERELVAAISSGGSTDYADSVNGRFTISRDNAKNTVYLQMNSLKPEDTAVYYCAVDWVSVPEYDYWGQGTQVTVSS”: the “polyreactivity (PSR sort gate)” value is recorded as “low polyreactivity”. Consider “QVQLVESGGGLVQAGGSLLLSCAASGLIFSWNAMGWYRQAPGKERELVASISYSGGRTYYADSVKGRFTISRDNAKNTVYLQMNSLKPEDTAVYYCAADTNATTDPEMDYWGQGTQVTVSS”, for which the “polyreactivity (PSR sort gate)” value is recorded as “low polyreactivity”.
